Legend:
[1] = Single intravenous dose pharmacokinetic study; settings: for loss of AUC: intact conjugate AUC relative to 40a; for AUC(0-24 hr) Conjugate: intact conjugate; for AUC(0-24 hr) Conjugate / CL / Vss / AUC(0-24 hr) Drug: male ICR mice; for AUC(0-24 hr) Conjugate / CL / Vss: 5 mg/kg intravenous; for CL / Vss: n = 3; for AUC(0-24 hr) Drug: 5 mg/kg intravenous of conjugate
Description: Six-week-old male ICR mice, from the Biolasco Taiwan, were divided into groups of three and dosed at 5 mg/kg intravenously. Blood samples were drawn from each animal at time points of 0.003, 0.083, 0.25, 0.5, 1, 2, 4, 6, 8, and 24 h and stored on ice (0–4 °C). With centrifugation (3000 rpm for 15 min at 4 °C in a Beckman Model Allegra 6R centrifuge), plasma was separated from the blood and stored in frozen conditions (−20 °C). […] The mice were sacrificed, and the blood samples of 0.5 mL each and tumor samples were collected at 0.5, 2, 6, 24, 72, and 168 h after administration. Each time point group included 4 mice. Mouse blood samples were collected in EDTA tubes and centrifuged at 13,000 rpm for 5 min at 4°C for plasma collection. Plasma and the harvested tumor samples were stored at −80°C until use. Fifty microliters of mouse plasma or the sample of tumor homogenated in ddH2O with dilution ratio of 1:3 (w/v) by MiniBeadbeater-16 (BioSpec Products Inc., OK, USA) was mixed with 100 μL of acetonitrile containing 250 ng/mL BPR0L187. The mixture was vortexed for 30 s and then centrifuged at 15000g for 20 min. The supernatant was transferred to a clean tube, and 15 μL of the supernatant was injected onto LC/MS/MS. Plasma samples were analyzed by liquid chromatography tandem mass spectrometry (LC/MS/MS). The chromatographic system Agilent 1200 series LC system and an Agilent ZORBAX Eclipse XDB-C8 column (5 μm, 3.0 × 150 mm) interfaced to an MDS Sciex API4000 tandem mass spectrometer equipped with an ESI in the positive scanning mode at 600 °C was used. Data acquisition was collected via multiple reactions monitoring (MRM). A gradient system was employed for the separation of analyte and IS. Mobile phase A was 10 mM ammonium acetate aqueous solution containing 0.1% formic acid. Mobile phase B was acetonitrile. The gradient profile was as follows: 0.0–1.1 min, 50% B; 1.2–3.7 min, 55%B–90%B; 3.8–5.0 min, 90%B–50%B. The flow rate was 1.5 mL/min. The autosampler was programmed to inject 15 μL of the sample every 5 min.

[2] = system: MIA PaCa-2 human xenografts; assay: MIA PaCa-2 xenograft antitumor efficacy
Description: Cancer cells, suspending in phenol red free medium/DPBS, were mixed with Matrigel (356237, BD Biosciences, San Jose CA, USA) in a 1:1 ratio. Human pancreatic cancer MIA PaCa-2 (1 × 10^6 cells) or triple-negative breast cancer HCC1806 (1 × 10^6cells) cells were subcutaneously inoculated to left flanks of male nude mice 6 weeks old (Biolasco, Taiwan) or female nude mice 6 weeks old by using a 1 mL syringe (needle 24G × 1 in., 0.55 × 25 mm; TERUMO). Tumor dimensions were measured twice a week with an electronic caliper (FOW54-200-777, PRO-MAX, Newton, Massachusetts, USA), and the volume of the subcutaneously growing tumor in mm^3 was calculated by the following formula: volume = (length × width[2])/2. Conjugates were formulated 10% DMA/20% Cremophor EL/70% injectable solution of 5% dextrose (D5W) for treating MIA PaCa-2 and HCC1806 xenograft tumors. […] Body weight of the mice and tumor volume were measured twice weekly.

[3] = MIA PaCa-2 xenograft, 2 mg/kg intravenous (Figure S4)
[4] = 1 mg/kg intravenously twice weekly for two weeks (Figure 4)

SMILES	loss of AUC [1]	AUC(0-24 hr) Conjugate [1]	CL [1]	Vss [1]	AUC(0-24 hr) Drug ([1]; released payload 14)	antitumor activity [2, 3]	body weight change during treatment [2, 3]	AUC(0-24 hr) Drug ([1]; released payload 16)	antitumor efficacy [2, 4]	body weight change during treatment [2, 4]
CCCCCC(=O)Nc1cccc(CN(Cc2cc(CN(Cc3ccccn3)Cc3cccc(NC(=O)CCCCC)n3)cc(OCCCCN(Cc3ccc(-c4ccccc4)cc3)C(=O)COCCOCCOCC(=O)NCc3ccc(CNC(=O)CCC(C)(C)SSCCC(=O)N(C)[C@@H](C)C(=O)O[C@H]4CC(=O)N(C)c5cc(cc(OC)c5Cl)C/C(C)=C/C=C\[C@@H](OC)[C@@]5(O)C[C@H](OC(=O)N5)[C@@H](C)[C@@H]5O[C@@]45C)cc3)c2)Cc2ccccn2)n1.O=[N+]([O-])[O-].O=[N+]([O-])[O-].O=[N+]([O-])[O-].O=[N+]([O-])[O-].[Zn+2].[Zn+2] [Compound 40b]	~20%	88387 ng·h/mL	1.0 mL/min/kg	0.2 L/kg	91 ng·h/mL					
CCCCCC(=O)Nc1cccc(CN(Cc2cc(CN(Cc3ccccn3)Cc3cccc(NC(=O)CCCCC)n3)cc(OCCCCNC(=O)CCSSCCC(=O)N(C)[C@@H](C)C(=O)O[C@H]3CC(=O)N(C)c4cc(cc(OC)c4Cl)C/C(C)=C/C=C\[C@@H](OC)[C@@]4(O)C[C@H](OC(=O)N4)[C@@H](C)[C@@H]4O[C@@]34C)c2)Cc2ccccn2)n1.O=[N+]([O-])[O-].O=[N+]([O-])[O-].O=[N+]([O-])[O-].O=[N+]([O-])[O-].[Zn+2].[Zn+2] [Compound 33, (1S,2R,3S,5S,6S,16E,18Z,20R,21S)-11-Chloro-21-hydroxy-12,20-dimethoxy-2,5,9,16-tetramethyl-8,23-dioxo-4,24-dioxa-9,22-diazatetracyclo[19.3.1.1.^10,140^3,5]hexacosa-10(26),11,13,16,18-pentaen-6-yl (2S)-2-[{3-[(3-{[4-(3,5-bis{[{[6-(Hexanoylamino)pyridin-2-yl]methyl}(pyridin-2-ylmethyl)amino]methyl}phenoxy)butyl]amino}-3-oxopropyl)disulfanyl]propanoyl}(methyl)amino]propanoate·2[Zn(NO3)2]]		14379 ng·h/mL	6.8 mL/min/kg	0.5 L/kg	270 ng·h/mL	exhibited antitumor activities	significant body weight loss			
COc1cc2cc(c1Cl)N(C)C(=O)C[C@H](OC(=O)[C@H](C)N(C)C(=O)CCSSCCC(=O)NCc1ccc(CNC(=O)COCCOCCOCC(=O)N(CCCCOc3cc(CN(Cc4ccccn4)Cc4ccccn4)cc(CN(Cc4ccccn4)Cc4ccccn4)c3)Cc3ccc(-c4ccccc4)cc3)cc1)[C@]1(C)O[C@H]1[C@H](C)[C@@H]1C[C@@](O)(NC(=O)O1)[C@H](OC)/C=C\C=C(/C)C2.O=[N+]([O-])[O-].O=[N+]([O-])[O-].O=[N+]([O-])[O-].O=[N+]([O-])[O-].[Zn+2].[Zn+2] [Compound 30]		39025 ng·h/mL	2.5 mL/min/kg	0.5 L/kg	242 ng·h/mL					
COc1cc2cc(c1Cl)N(C)C(=O)CC(OC(=O)C(C)N(C)C(=O)CCSSCCC(=O)NCCCCOc1cc(CN(Cc3ccccn3)Cc3ccccn3)cc(CN(Cc3ccccn3)Cc3ccccn3)c1)C1(C)OC1C(C)C1CC(O)(NC(=O)O1)C(OC)C=CC=C(C)C2.O=[N+]([O-])[O-].O=[N+]([O-])[O-].O=[N+]([O-])[O-].O=[N+]([O-])[O-].[Zn+2].[Zn+2] [Compound 27a, (1S,2R,3S,5S,6S,16E,18Z,20R,21S)-11-Chloro-21-hydroxy-12,20-dimethoxy-2,5,9,16-tetramethyl-8,23-dioxo-4,24-dioxa-9,22-diazatetracyclo[19.3.1.1.^10,140^3,5]hexacosa-10(26),11,13,16,18-pentaen-6-yl (2S)-2-[{3-[(3-{[4-(3,5-bis{[bis(Pyridin-2-ylmethyl)amino]methyl}phenoxy)butyl]amino}-3-oxopropyl)disulfanyl]propanoyl}(methyl)amino]propanoate·2[Zn(NO3)2]]		7051 ng·h/mL	11.5 mL/min/kg	2.6 L/kg	462 ng·h/mL	exhibited antitumor activities	significant body weight loss			
COc1cc2cc(c1Cl)N(C)C(=O)C[C@H](OC(=O)[C@H](C)N(C)C(=O)CCSSc1ccc(C(=O)NCCCCOc3cc(CN(Cc4ccccn4)Cc4ccccn4)cc(CN(Cc4ccccn4)Cc4ccccn4)c3)cc1)[C@]1(C)O[C@H]1[C@H](C)[C@@H]1C[C@@](O)(NC(=O)O1)[C@H](OC)/C=C\C=C(/C)C2.O=[N+]([O-])[O-].O=[N+]([O-])[O-].O=[N+]([O-])[O-].O=[N+]([O-])[O-].[Zn+2].[Zn+2] [Compound 27b, (1S,2R,3S,5S,6S,16E,18Z,20R,21S)-11-Chloro-21-hydroxy-12,20-dimethoxy-2,5,9,16-tetramethyl-8,23-dioxo-4,24-dioxa-9,22-diazatetracyclo[19.3.1.1.^10,140^3,5]hexacosa-10(26),11,13,16,18-pentaen-6-yl (2S)-2-[{3-[(4-{[4-(3,5-bis{[bis(Pyridin-2-ylmethyl)amino]methyl}phenoxy)butyl]carbamoyl}phenyl)disulfanyl]propanoyl}(methyl)amino]propanoate·2[Zn(NO3)2]]		318 ng·h/mL	294 mL/min/kg	83 L/kg	216 ng·h/mL	exhibited antitumor activities	significant body weight loss			
CCCCCC(=O)Nc1cccc(CN(Cc2cc(CN(Cc3ccccn3)Cc3cccc(NC(=O)CCCCC)n3)cc(OCCCCN(Cc3ccc(C(=O)NCCOCCOCCNC(=O)CCSSC(C)(C)CCC(=O)N(C)C(C)C(=O)OC4CC(=O)N(C)c5cc(cc(OC)c5Cl)CC(C)=CC=CC(OC)C5(O)CC(OC(=O)N5)C(C)C5OC45C)cc3)C(=O)C3(c4ccc(Cl)cc4)CCCCC3)c2)Cc2ccccn2)n1.O=[N+]([O-])[O-].O=[N+]([O-])[O-].O=[N+]([O-])[O-].O=[N+]([O-])[O-].[Zn+2].[Zn+2] (centres unmarked) [Compound 43]	~20%	84916 ng·h/mL	1.0 mL/min/kg	0.2 L/kg				48 ng·h/mL		
CCCCCC(=O)Nc1cccc(CN(Cc2cc(CN(Cc3ccccn3)Cc3cccc(NC(=O)CCCCC)n3)cc(OCCCCNC(=O)COCCOCCOCC(=O)NCc3ccc(CNC(=O)CCSSCCC(=O)N(C)[C@@H](C)C(=O)O[C@H]4CC(=O)N(C)c5cc(cc(OC)c5Cl)C/C(C)=C/C=C\[C@@H](OC)[C@@]5(O)C[C@H](OC(=O)N5)[C@@H](C)[C@@H]5O[C@@]45C)cc3)c2)Cc2ccccn2)n1.O=[N+]([O-])[O-].O=[N+]([O-])[O-].O=[N+]([O-])[O-].O=[N+]([O-])[O-].[Zn+2].[Zn+2] [Compound 36]		14244 ng·h/mL	6.0 mL/min/kg	0.4 L/kg	640 ng·h/mL				potent antitumor efficacies	without apparent body weight loss

Source: publication PMC9574934, “Targeting the Phosphatidylserine-Immune Checkpoint with a Small-Molecule Maytansinoid Conjugate” (Journal of Medicinal Chemistry, 2022)
